Measured values: patent US20250302974A1, “LECTIN-DRUG CONJUGATES” (UNICHEM LABORATORIES LIMITED, priority 2021, published 2025)

How the values were obtained:
Assay in all cases: Cytotoxic effect by MTT assay, 48 h
[1] = system: PANC-1 Pancreatic; conditions: for Percent cytotoxicity wrt control: 48 h
Protocol: (§1) Cells were treated with Test Items at various concentrations (0.0001 μM-10 μM) for 48 h. The cells corresponding to Positive Control group were treated with Doxorubicin at a concentration ranging from 0.1 μM-100 μM. The Untreated cells were used as Control. After 48 h of incubation, the effect of Test Items on cytotoxicity of cells was determined by MTT assay, the plates were taken out and 20 μl of 5 mg/m1 of MTT 3-(4,5-dimethythiazol-2-yl)-2,5-diphenyl tetrazolium bromide solution was added to all the wells. Cells were incubated for 3 h at 37° C. The supernatant was aspirated. 150 μl of DMSO was added to each well to dissolve formazan crystals. The absorbance of each well was then read at 540 nm using Synergy HT micro plate reader.
(§2) The % Cytotoxicity was calculated using the formula:
(§3) Where, X=Absorbance of cells treated with Test Item; R=Absorbance of Control cells (Untreated cells maintained in growth medium only).
(§4) Selectivity Index was calculated using the formula:
(§5) SI=IC50 in Normal cell/IC50 in cancer cell.
(§6) Activity scores of the Selective Index values were categorized as: • Not selective (SI value ≤1) • Moderately selective (1<SI value <5) • Selective (SI value ≥5)

[2] = system: U251 MG Brain; conditions: for Percent cytotoxicity wrt control: U251 MG, 48 h
Protocol: as §1, §2, §3, §4, §5, §6

[3] = system: PA-1 Ovary; conditions: for Percent cytotoxicity wrt control: 48 h
Protocol: as §1, §2, §3, §4, §5, §6

[4] = system: HT29 Colon; conditions: for Percent cytotoxicity wrt control: 48 h
Protocol: as §1, §2, §3, §4, §5, §6

[5] = system: PBMC Normal; conditions: for Percent cytotoxicity wrt control: PBMC, 48 h
Protocol: as §1, §2, §3

[6] = system: A549 Lungs; conditions: for Percent cytotoxicity wrt control: 48 h
Protocol: as §1, §2, §3, §4, §5, §6

B1: SEQ ID NO: 2: recombinant variant of the S. rolfsii lectin amino acid sequence (reported as Rec-2 in WO2010/095143) (protein)
chain: TYKITVRVYQTNPDAFFHPVEKTVWKYANGGTWTITDDQHVLTMGGSGTSGTLRFHADNGESFTATFGVHNYKRWCDIVTNLAADETGMVINQQYYSQKNREEARERQLSNYQVKNAKGRNFQIVYTEAEGNDLHANLIIG
B1 was tested, and the “Percent cytotoxicity wrt control” value ([1]; PANC-1, 0.0001 μM) was 9.5%, the “Percent cytotoxicity wrt control” value ([1]; PANC-1, 0.001 μM) was 17% and the “Percent cytotoxicity wrt control” value ([1]; PANC-1, 0.01 μM) was 20.5%. The “Percent cytotoxicity wrt control” value ([1]; PANC-1, 0.1 μM) was 22.5%, the “Percent cytotoxicity wrt control” value ([1]; PANC-1, 1 μM) was 34.4% and the “Percent cytotoxicity wrt control” value ([1]; PANC-1, 10 μM) was 36.4%. The IC50 ([1]; read-out: IC50 Values, PANC-1 Pancreatic, after 48 h of treatment) was > 10 µM, the “Percent cytotoxicity wrt control” value ([2]; 0.0001 μM) was −9.9% and the “Percent cytotoxicity wrt control” value ([2]; 0.001 μM) was −13.2%. For the same molecule, the “Percent cytotoxicity wrt control” value ([2]; 0.01 μM) was −14.5%, the “Percent cytotoxicity wrt control” value ([2]; 0.1 μM) was −5.3% and the “Percent cytotoxicity wrt control” value ([2]; 1 μM) was 15.9%. For the same molecule, the “Percent cytotoxicity wrt control” value ([2]; 10 μM) was 62.5%, the IC50 ([2]; read-out: IC50 Values, U251 MG Brain, after 48 h of treatment) was 5.95 µM and the “Percent cytotoxicity wrt control” value ([3]; PA-1, 0.0001 μM) was 0.9%. The “Percent cytotoxicity wrt control” value ([3]; PA-1, 0.001 μM) was −5.6%, the “Percent cytotoxicity wrt control” value ([3]; PA-1, 0.01 μM) was 7.4% and the “Percent cytotoxicity wrt control” value ([3]; PA-1, 0.1 μM) was 4.5%. For the same molecule, the “Percent cytotoxicity wrt control” value ([3]; PA-1, 1 μM) was 51%, the “Percent cytotoxicity wrt control” value ([3]; PA-1, 10 μM) was 72.2% and the IC50 ([3]; read-out: IC50 Values, PA-1 Ovary, after 48 h of treatment) was 1.54 µM. For the same molecule, the “Percent cytotoxicity wrt control” value ([4]; HT29, 0.0001 μM) was 14%, the “Percent cytotoxicity wrt control” value ([4]; HT29, 0.001 μM) was 16.6% and the “Percent cytotoxicity wrt control” value ([4]; HT29, 0.01 μM) was 22.5%. The “Percent cytotoxicity wrt control” value ([4]; HT29, 0.1 μM) was 24.7%, the “Percent cytotoxicity wrt control” value ([4]; HT29, 1 μM) was 35.4% and the “Percent cytotoxicity wrt control” value ([4]; HT29, 10 μM) was 54.1%. The IC50 ([4]; read-out: IC50 Values, HT29 Colon, after 48 h of treatment) was 9.39 µM, the “Percent cytotoxicity wrt control” value ([5]; 0.0001 μM) was −7.4% and the “Percent cytotoxicity wrt control” value ([5]; 0.001 μM) was 19.9%. The “Percent cytotoxicity wrt control” value ([5]; 0.01 μM) was 24%, the “Percent cytotoxicity wrt control” value ([5]; 0.1 μM) was 44.9% and the “Percent cytotoxicity wrt control” value ([5]; 1 μM) was 49.5%. The “Percent cytotoxicity wrt control” value ([5]; 10 μM) was 43.4%, the IC50 ([5]; read-out: IC50 Values, PBMC Normal, after 48 h of treatment) was > 10 µM and the “Percent cytotoxicity wrt control” value ([6]; A549, 0.0001 μM) was −0.5%. For the same molecule, the “Percent cytotoxicity wrt control” value ([6]; A549, 0.001 μM) was −15.5%, the “Percent cytotoxicity wrt control” value ([6]; A549, 0.01 μM) was −1.1% and the “Percent cytotoxicity wrt control” value ([6]; A549, 0.1 μM) was −6.9%. For the same molecule, the “Percent cytotoxicity wrt control” value ([6]; A549, 1 μM) was 31.9%, the “Percent cytotoxicity wrt control” value ([6]; A549, 10 μM) was 48.2% and the IC50 ([6]; read-out: IC50 Values, A549 Lungs, after 48 h of treatment) was ≥ 10 µM.
